In patent US20240400663A1 (Regeneron, published 2024):

B1: H1H29109P (antibody, V domains shown)
VH: EVQLVESGGGLVQPGRSLRLSCAVSGFTFDDYAMHWVRQAPGKGLEWVSGISWNSGDIDYADSVKGRFTISRDNAKNSLYLQMNSLRAEDTALYYCAKDTLSGTGTTWYYFDYWGQGTLVTVSS
VL: DIQLTQSPSFLSASVGDRVTITCWASQGISSYLIWYQQKPGKAPKLLIYAASTLQSGVPSRFSGSGSGTEFTLTISSLQPEDFATYYCQQVNSYPLTFGGGTKVEIKR
B2: H1H29147P2 (antibody, V domains shown)
VH: QVQLVQSGAEVKNPGSSVKVSCKASGGTFSSYTINWVRQAPGQGLEWMGGIIPLYGTANYAQKFQARVTISTDESTNTAYMELSNLRFEDTAVYFCASTLELRAFDAFDIWGQGTMVTVSS
VL: not shown
B3: H1H29104P (antibody, V domains shown)
VH: EVQLVESGGGLVQPGRSLRLSCAASGFRFDDYAMHWVRQAPGKGLEWVSGINWNSGGKGYADSVQGRFTISRDNAKNSLYLQMNSLRTEDTALYYCAKDRGIAARLLSRDAFDMWGQGTMVTVSS
VL: DIQLTQSPSFLSASVGDRVTITCWASQDVSSYLAWYQQKPGKSPKLLIFAASTLQGGIPSRFSGSGSGTEFTLTISSLRPEDFATYYCQHLNTYPYTFGQGTKLEIKR
B4: H1H29198P2 (antibody, V domains shown)
VH: QVQLVQSGAEVKKPGASVKVSCKVSGYTLTELSMHWVRQAPGKGLEWMGGFDPEHGKIIYAQKFQGRVTMTEDTSTDTAYMELSSLRSEDTAVYYCATFYNWNSYYFGMDVWGHGTTVTVSS
VL: not shown
B5: H1H29106P (antibody, V domains shown)
VH: QVQLVESGGGVVQSGRSLRLSCAASSFTFSSYGMHWVRQSPGKGLEWVAVISYDGSNKYYGDFVRGRFTISRDNSKNTLYLQMNSLRAEDTAMYYCAREVRRYYYYGMDVWGQGTTVTVSS
VL: not shown
B6: H1H29209P2 (antibody, V domains shown)
VH: QLQLQESGPGLVKPSETLSLTCTVSGGSISSRSHYWGWIRQPPGKGLEWIGSIYYSGSTYYNPSLKSRVTISVDTSKNQFSLKLSSVTAADTAVYYCARLGWYAEEAFEIWGQGTMVTVSS
VL: not shown
B7: H1H29214P2 (antibody, V domains shown)
VH: QLQLQESGPGLVKPSETLSLTCTVSGGSISSSSYYWGWIRQPPGKGLEWIGSIYYSGSTYYNPSLKSRVTISVDTSKNQFSLKLSSVTAADTAVYYCARQGRWERENFDYWGQGTLVTVSS
VL: not shown
B8: H1H29215P2 (antibody, V domains shown)
VH: QVQLQQWGAGLLKPSETLSLTCAVSDESFSDYYWTWIRQPPGKGLEWIGEITHSGSTHYNPSLKSRVTLSVDTSKNHFSLSLNSVTAADTAIYYCARGGDYGGLLDYWGQGTLVTVSS
VL: not shown
B9: H1H29207P2 (antibody, V domains shown)
VH: EVQLVESGGGLVQPGGSLRLSCAASGFTFSSYAMNWVRQAPGKGLEWVSAVSGSADITNYADSVKGRFTISRDNSKHTLYLQMNSLRAEDTAVYYCAKDKVYNWNYGIYYGMDVWGQGTTVTVSS
VL: not shown
B10: H1H29187P2 (antibody, V domains shown)
VH: QVQLVESGGGVVQPGRFLRLSCAASGFTFSNSGMHWVRQAPGKGLEWVAGIWHDGSYKYYVDSVKGRFTISRDNSKNTLFLQMNSLRAEDTAVYYCARDDYYASGTSVDVWGQGTTVTVSS
VL: not shown
B11: H1H29127P (antibody, V domains shown)
VH: QVQLVESGGGVVQPGRSLRLSCAASGFTFSSYGMHWVRQAPGKGLEWVAAIWYDGSNKYYADSVKGRFTISRDNSKNTLYLQMNSLRAEDTAVYFCARGEHYYGSGPFDPWGQGTLVTVSS
VL: DIQMTQSPSSLSASVGDRVTITCRASQSISNYLNWYQQKPGKAPKLLIFAASSLQSGVPSRFSGSGSGTDFTLTISSLQPEDFATYYCQQSYSSPLTFGGGTKVEIKR
B12: H1H29143P (antibody, V domains shown)
VH: EVQLVESGGGLVQPGGSLRLSCAASGFTFNNYAMSWVRQAPGRGLEWVSAISGSGDSTYYSDSVKGRFTISRDNSKNTLYLQMNSLRAEDTAVYYCAKDQGLYYYGSGSFDYWGQGTLVTVSS
VL: not shown

Columns and labels:
Assay in all cases: cell-based or functional assay
[1] = target: PfRH5 of Plasmodium falciparum strain W2-mef (on live parasites) (Plasmodium falciparum)
[2] = target: T1, PfRH5 of Plasmodium falciparum strain FCR-1/FVO (on live parasites) (Plasmodium falciparum)
[3] = target: PfRH5 of Plasmodium falciparum strain HB3 (on live parasites) (Plasmodium falciparum)
[4] = target: PfRH5 of Plasmodium falciparum strain D10 (on live parasites) (Plasmodium falciparum)
[5] = target: T2, PfRH5 of Plasmodium falciparum strain 7G8 (on live parasites) (Plasmodium falciparum)
[6] = target: PfRH5 of Plasmodium falciparum strain Cam3.II (on live parasites) (Plasmodium falciparum)
[7] = target: T3, PfRH5 of Plasmodium falciparum strain Dd2 (on live parasites) (Plasmodium falciparum)
[8] = target: PfRH5 of Plasmodium falciparum strain RF7 (on live parasites) (Plasmodium falciparum)
[9] = target: T2, PfRH5 of Plasmodium falciparum strain …; remark: listed apart in the source
[10] = target: T1, PfRH5 of Plasmodium falciparum strain …; remark: listed apart in the source
[11] = target: T3, PfRH5 of Plasmodium falciparum strain …; remark: listed apart in the source

Binder	Max growth inhibition (%) W2-mef [1] [%]	Max growth inhibition (%) FCR-1/FVO [2] [%]	Max growth inhibition (%) HB3 [3] [%]	Max growth inhibition (%) D10 [4] [%]	Max growth inhibition (%) 7G8 [5] [%]	Max growth inhibition (%) Cam3.II [6] [%]	Max growth inhibition (%) Dd2 [7] [%]	Max growth inhibition (%) RF7 [8] [%]	Max growth inhibition (%) 7G8, no chloroquine [9] [%]	Percent Maximum Growth Inhibition, FCR-1/FVO, mAb (6.67 µM) + AHIS (10%) [10] [%]	Percent Maximum Growth Inhibition, FCR-1/FVO, mAb (6.67 µM) + ANS (10%) [10] [%]	Percent Maximum Growth Inhibition, FCR-1/FVO, mAb (6.67 µM) + HHIS (10%) [10] [%]	Percent Maximum Growth Inhibition, FCR-1/FVO, mAb (6.67 µM) + HNS (10%) [10] [%]	Percent Maximum Growth Inhibition, FCR-1/FVO, mAb (6.67 µM) + No serum [10] [%]	Maximum growth inhibition (%) Dd2 [11] [%]
B1	37.9	56.7	32.2	44.8	39	35.9	42	8.24							
B2	64.7	70.3	64.8	81.4	65.2	51.9	65.3	31.4	47.3	86.2	80.3	83.4	85.6	84.1	
B3	47.4	67.4	39.8	55.7	35.2	50	61.3	23.6							54.1
B4	-3.61	11.1	15.5	4.38	5.31	14.7	10.1	1.53							
B5	48.9	54.3	48.4	74.9	55.5	51.7	54	27.4							
B6	39.6	19.2	52.4	72.7	49.9	47.3	38.1	11.9							
B7	52.7	13.1	59.1	76.5	56.7	46.7	47.2	11.2							
B8	37.2	54	30.1	35.8	33.2	27.2	22.8	11.3							
B9	65.2	69.2	49.3	73.9	58.7	45.3	61.3	31.1							
B10	67.3	72.2	63.9	79.6		49.2	66	32.7	49.3	89.4	80.1	85.4	85.9	85.3	
B11	53.6	61.1	59.4	74.4	61.2	47	64.7	25.7							56.9
B12	58.3	67.2	60.9	79.4	61.9	53.2	62.7								56
